# T1: glycoprotein hormone beta 5 (GPHB5), human, beta subunit of CGH (human, UniProt Q86YW7 25-130)
# T1 construct: Secreted from CHO 180 cells
# T1 sequence: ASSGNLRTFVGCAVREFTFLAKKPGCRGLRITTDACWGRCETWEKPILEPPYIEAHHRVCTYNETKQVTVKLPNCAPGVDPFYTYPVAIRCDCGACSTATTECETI
# B1: corticotroph-derived glycoprotein hormone (CGH), human recombinant, non-covalent heterodimer of GPHA2 and GPHB5 (ligand)
# chain 1: QEAVIPGCHLHPFNVTVRSDRQGTCQGSHVAQACVGHCESSAFPSRYSVLVASGYRHNITSVSQCCTISGLKKVKVQLQCVGSRREELEIFTARACQCDMCRLSRY
# chain 2: T1 sequence
# B2: glycoprotein hormone alpha2 (GPHA2), human, alpha subunit of CGH (ligand)
# chain: B1 chain 1
# notes: Secreted from CHO 180 cells; also called Zsig51
# Assays:
# [1] = target: TSH receptor (TSHR) on primary human adipocytes (human, UniProt P16473 21-764); test: cell-based or functional assay
# TSH receptor (TSHR) on primary human adipocytes, sequence (P16473 21-764): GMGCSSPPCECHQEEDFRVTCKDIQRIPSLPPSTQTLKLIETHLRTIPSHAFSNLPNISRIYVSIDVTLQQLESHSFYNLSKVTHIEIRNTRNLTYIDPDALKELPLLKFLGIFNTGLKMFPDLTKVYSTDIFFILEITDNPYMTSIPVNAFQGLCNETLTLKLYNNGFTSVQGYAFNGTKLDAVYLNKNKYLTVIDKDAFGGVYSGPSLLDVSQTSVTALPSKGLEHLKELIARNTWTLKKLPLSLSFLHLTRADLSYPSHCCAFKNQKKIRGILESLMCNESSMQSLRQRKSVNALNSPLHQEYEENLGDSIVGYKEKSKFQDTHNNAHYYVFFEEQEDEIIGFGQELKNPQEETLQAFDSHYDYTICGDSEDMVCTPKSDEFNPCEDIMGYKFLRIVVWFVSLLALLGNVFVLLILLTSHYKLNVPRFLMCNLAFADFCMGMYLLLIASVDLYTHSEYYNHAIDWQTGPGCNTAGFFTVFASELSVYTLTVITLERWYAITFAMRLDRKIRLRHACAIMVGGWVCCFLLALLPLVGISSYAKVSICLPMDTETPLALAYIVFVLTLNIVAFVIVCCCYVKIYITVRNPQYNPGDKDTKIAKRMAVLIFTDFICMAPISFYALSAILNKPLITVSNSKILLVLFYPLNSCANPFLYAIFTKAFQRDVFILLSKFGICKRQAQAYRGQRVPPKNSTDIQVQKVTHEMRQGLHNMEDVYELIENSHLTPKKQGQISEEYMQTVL
# [2] = target: TSH receptor (TSHR) on differentiated murine 3T3 L1 adipocytes (murine, UniProt P47750 22-764); test: cell-based or functional assay
# TSH receptor (TSHR) on differentiated murine 3T3 L1 adipocytes, sequence (P47750 22-764): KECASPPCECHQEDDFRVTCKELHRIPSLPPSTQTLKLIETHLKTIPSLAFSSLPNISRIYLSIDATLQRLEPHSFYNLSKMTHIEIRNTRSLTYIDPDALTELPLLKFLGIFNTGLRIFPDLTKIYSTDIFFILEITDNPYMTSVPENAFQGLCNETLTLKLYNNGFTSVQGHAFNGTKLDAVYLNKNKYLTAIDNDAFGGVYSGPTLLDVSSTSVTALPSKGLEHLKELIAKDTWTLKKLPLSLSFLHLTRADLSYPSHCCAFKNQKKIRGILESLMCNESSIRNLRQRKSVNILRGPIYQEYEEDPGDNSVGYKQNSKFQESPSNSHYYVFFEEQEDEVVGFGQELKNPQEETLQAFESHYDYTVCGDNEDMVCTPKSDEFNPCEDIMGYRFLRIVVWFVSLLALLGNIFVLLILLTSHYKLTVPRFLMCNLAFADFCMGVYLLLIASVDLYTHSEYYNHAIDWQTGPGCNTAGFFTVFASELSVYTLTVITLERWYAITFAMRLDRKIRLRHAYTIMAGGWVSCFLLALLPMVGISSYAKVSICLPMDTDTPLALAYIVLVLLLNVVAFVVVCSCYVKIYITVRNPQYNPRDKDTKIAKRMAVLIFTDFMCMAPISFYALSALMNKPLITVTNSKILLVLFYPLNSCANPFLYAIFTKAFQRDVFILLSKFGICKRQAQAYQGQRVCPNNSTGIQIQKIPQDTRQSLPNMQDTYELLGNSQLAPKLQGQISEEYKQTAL
# [3] = target: T1, glycoprotein hormone beta 5 (GPHB5), …; test: co-expression in CHO cells; secreted heterodimer
Binder,"induction of the reporter gene (CRE-luciferase reporter, cAMP) [1] [fold]","induction of luciferase expression (CRE-luciferase reporter, cAMP) [2] [fold]",binding result [3]
B1,14,27,
B2,,,binds
